Earlier results on one substance are cited in article PMC3229669.

The data set addresses histone H4 N-terminal tail (UniProt P62805).

pKd: −log10 of the molar value.

Chain of Spt16 NT domain (O94267 1-442): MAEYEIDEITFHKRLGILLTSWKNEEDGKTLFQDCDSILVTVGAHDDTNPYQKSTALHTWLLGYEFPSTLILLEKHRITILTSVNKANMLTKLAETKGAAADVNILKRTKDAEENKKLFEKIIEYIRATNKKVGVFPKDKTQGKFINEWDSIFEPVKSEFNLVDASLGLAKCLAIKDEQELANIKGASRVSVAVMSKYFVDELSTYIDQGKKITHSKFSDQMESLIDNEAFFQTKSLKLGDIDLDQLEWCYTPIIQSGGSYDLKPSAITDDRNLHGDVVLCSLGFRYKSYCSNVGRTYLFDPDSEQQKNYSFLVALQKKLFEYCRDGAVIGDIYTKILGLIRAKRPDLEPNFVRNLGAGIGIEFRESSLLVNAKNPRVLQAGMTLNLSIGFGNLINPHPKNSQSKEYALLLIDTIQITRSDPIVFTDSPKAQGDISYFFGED

Regarding Spt16 NT domain (from UniProt O94267), the pKd is 5.52.

One may read the pKd as the Kd on a negative log10 scale, so that one unit is a factor of ten.
